This series deals with hsTFB1M (Homo sapiens, UniProt Q8WVM0 28-346). The experiment in a line: X-ray crystallography; no SAM (binary complex), 3.0 A; EMSA: 50 mM Tris-HCl pH 8.0, 25 mM NaCl, 100 nM RNA, TFB1M 0-2 mM as printed (legend suggests uM), 37 C 30 min; 6% native PAGE, 0.5x TBE. The conditions noted are these: protein: recombinant; tags: His6-MBP N-terminal, removed by TEV; hairpin. In general terms: Mobility shift assays separate free from complexed probe on a gel.
Sequence of hsTFB1M (Q8WVM0 28-346): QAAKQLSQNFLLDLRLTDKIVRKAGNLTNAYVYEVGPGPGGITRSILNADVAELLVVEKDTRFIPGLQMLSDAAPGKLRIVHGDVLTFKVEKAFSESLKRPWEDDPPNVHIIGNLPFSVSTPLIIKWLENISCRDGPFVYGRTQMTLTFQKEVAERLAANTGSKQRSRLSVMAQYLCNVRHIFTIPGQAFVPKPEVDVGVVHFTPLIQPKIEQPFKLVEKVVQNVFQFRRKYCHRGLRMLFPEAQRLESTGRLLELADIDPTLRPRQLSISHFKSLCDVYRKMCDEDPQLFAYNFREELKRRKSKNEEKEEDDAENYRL

As for GGUAAGUGUACUGGAAAGUGCACUUGCC (structured_RNA) [h45 RNA (crystal)], the binding result is “binds”.

The values are drawn from article PMC6698656, “Structural insights into dimethylation of 12S rRNA by TFB1M: indispensable role in translation of mitochondrial genes and mitochondrial function”.
